Results taken from article PMC3919264.

How the values were obtained:
[1] = molecular target: taxol-polymerized microtubules from bovine brain tubulin (bovine (purified from bovine brain)) (UniProt Q6B856)
[2] = molecular target: taxol-polymerized microtubules from bovine brain tubulin (bovine (purified from bovine brain)) (UniProt Q6B856); remark: listed apart in the source
[3] = molecular target: taxol-polymerized microtubules from bovine brain tubulin (bovine (purified from bovine brain)) (UniProt Q6B856); test: co-sedimentation; MT pelleting assay with 2 mM AMP-PNP: Kif15 19-375 (1–12 µM) mixed with taxol-polymerized MTs (5 µM), 50 mM PIPES pH 6.9, 20 mM NaCl, 2 mM MgCl2, 1 mM DTT, room temperature 10 min, 100 000g at 25°C for 20 min, SDS–PAGE of supernatants and pellets
[4] = molecular target: taxol-polymerized microtubules from bovine brain tubulin (bovine (purified from bovine brain)) (UniProt Q6B856); test: co-sedimentation; MT pelleting assay with 4 mU apyrase ('nucleotide-free' state): Kif15 19-375 (1–12 µM) mixed with taxol-polymerized MTs (5 µM), 50 mM PIPES pH 6.9, 20 mM NaCl, 2 mM MgCl2, 1 mM DTT, room temperature 10 min, 100 000g at 25°C for 20 min, SDS–PAGE of supernatants and pellets

B1: Homo sapiens Kif15 motor domain and neck-linker region (Kif15 19-375) (domain or fragment)
chain: QPSNEGDAIKVFVRIRPPAERSGSADGEQNLCLSVLSSTSLRLHSNPEPKTFTFDHVADVDTTQESVFATVAKSIVESCMSGYNGTIFAYGQTGSGKTFTMMGPSESDNFSHNLRGVIPRSFEYLFSLIDREKEKAGAGKSFLCKCSFIEIYNEQIYDLLDSASAGLYLREHIKKGVFVVGAVEQVVTSAAEAYQVLSGGWRNRRVASTSMNRESSRSHAVFTITIESMEKSNEIVNIRTSLLNLVDLAGSERQKDTHAEGMRLKEAGNINRSLSCLGQVITALVDVGNGKQRHVCYRDSKLTFLLRDSLGGNAKTAIIANVHPGSRCFGETLSTLNFAQRAKLIKNKAVVNEDTQG
K 0.5,MT of the MT-stimulated ATPase activity (MTs 0 to 10 µM, 1 mM ATP, no KCl, 25°C) [1]: 1.1 µM
MT activation of Mant-ADP release, stopped flow, 25°C, various MT concentrations with chasing Mg2+-ATP (MTs here from pig brain tubulin; preliminary data) [2]: 1000 fold
Kd [3]: 500 nM
stoichiometry N [3]: 1.1
Kd [4]: 400 nM
stoichiometry N [4]: 1.3
